Changes are numbered by the printed parent chain. Names may count otherwise.
What was measured:
[1] = biological target: T1, p75 MLL test substrate, wild type (MLL aa 2,400 to 2,900, N-terminal Myc tag, C-terminal Flag tag), Q03164
T1 chain: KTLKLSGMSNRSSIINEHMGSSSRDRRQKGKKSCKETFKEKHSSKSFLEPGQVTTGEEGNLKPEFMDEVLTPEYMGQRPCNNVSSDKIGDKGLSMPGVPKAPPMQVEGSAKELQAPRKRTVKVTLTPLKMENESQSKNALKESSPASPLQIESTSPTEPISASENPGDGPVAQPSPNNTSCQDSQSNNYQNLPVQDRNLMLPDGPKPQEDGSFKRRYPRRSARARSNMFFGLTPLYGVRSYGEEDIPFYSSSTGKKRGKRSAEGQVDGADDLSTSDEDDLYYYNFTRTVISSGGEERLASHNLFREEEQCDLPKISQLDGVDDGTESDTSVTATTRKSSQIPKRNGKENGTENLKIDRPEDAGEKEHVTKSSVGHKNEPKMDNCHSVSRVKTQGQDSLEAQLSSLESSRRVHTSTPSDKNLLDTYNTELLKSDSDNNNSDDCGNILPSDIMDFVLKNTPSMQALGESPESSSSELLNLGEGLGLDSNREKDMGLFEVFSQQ

[2] = biological target: T2, p75 MLL substrate with mutant CS1/CS2 sites (MLL aa 2,400 to 2,900 of noncleavable MLL mt, Myc/Flag tagged), Q03164
T2 chain: T1 chain with D267A, G268A, D319A, G320A

[3] = biological target: T3, His-tagged 28 kDa alpha subunit of recombinant Taspase1 (human, UniProt Q9H6P5 1-233); assay: co-purification on a TALON column of N-terminal His-tagged Taspase1 from E. coli, Coomassie-stained SDS-PAGE, Edman degradation of the 22 kDa band
T3 construct: also called 28 kDa N-terminal alpha subunit; 29 kDa alpha; not shown: N-terminal His tag from bacterial expression vector ET15b (Novagen)
T3 sequence: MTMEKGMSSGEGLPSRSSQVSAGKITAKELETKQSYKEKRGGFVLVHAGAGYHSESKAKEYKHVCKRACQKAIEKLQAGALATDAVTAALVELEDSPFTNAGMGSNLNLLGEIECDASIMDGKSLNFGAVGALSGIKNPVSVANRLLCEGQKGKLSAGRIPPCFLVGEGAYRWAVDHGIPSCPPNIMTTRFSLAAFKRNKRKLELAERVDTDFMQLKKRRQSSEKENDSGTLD
Excerpt: Purification of recombinant N-terminal His-tagged Taspase1 yielded an expected 50 kDa product, a His-tagged 28 kDa a subunit, and a co-purified 22 kDa polypeptide (FIG. 5A). […] Similarly when an N-terminal and C-terminal epitope tagged human Taspase1 cDNA was expressed in the human 293 T cell line, the 50 kDa product also appeared to be processed to a 28 kDa N-terminal α subunit and a 22 kDa C-terminal β subunit (FIG. 3D). […] However, the D233A mutant retained some residual enzymatic activity, although it was ˜1000 fold less efficient than the wt enzyme (FIG. 5B, middle panel). […] Thus, this MLL cleaving protease is the first endopeptidase within the Asparaginase_{—}2 family with the novel characteristic of being a threonine aspartase, Taspase1.
His-tagged Taspase1 was expressed in BL21(DE3) cells and purified with a TALON column (Clontech). N-terminal protein sequencing was performed by Molecular Biology Core Facility at the Dana-Farber Cancer Institute.

B1: Recombinant His-tagged Taspase1 D233A mutant (E. coli) (protein)
chain: MTMEKGMSSGEGLPSRSSQVSAGKITAKELETKQSYKEKRGGFVLVHAGAGYHSESKAKEYKHVCKRACQKAIEKLQAGALATDAVTAALVELEDSPFTNAGMGSNLNLLGEIECDASIMDGKSLNFGAVGALSGIKNPVSVANRLLCEGQKGKLSAGRIPPCFLVGEGAYRWAVDHGIPSCPPNIMTTRFSLAAFKRNKRKLELAERVDTDFMQLKKRRQSSEKENDSGTLATVGAVVVDHEGNVAAAVSSGGLALKHPGRVGQAALYGCGCWAENTGAHNPYSTAVSTSGCGEHLVRTILARECSHALQAEDAHQALLETMQNKFISSPFLASEDGVLGGVIVLRSCRCSAEPDSSQNKQTLLVEFLWSHTTESMCVGYMSAQDGKAKTHISRLPPGAVAGQSVAIEGGVCRLESPVN
With B1 the “in vitro cleavage activity of purified recombinant mutant enzyme” value [1] was “˜1000 fold less efficient than the wt enzyme”.

B2: Recombinant His-tagged Taspase1 T234A mutant (E. coli) (protein)
chain: B1 chain with A233D, T234A
For B2, the “in vitro cleavage activity of purified recombinant mutant enzyme” value [1] was “threonine 234 which became the N-terminus of the β subunit is absolutely essential for cleavage activity”.

B3: Recombinant N-terminal His-tagged Taspase1 (rTaspase1), wild type, expressed in E. coli (protein)
chain 1: T3 sequence
chain 2: TVGAVVVDHEGNVAAAVSSGGLALKHPGRVGQAALYGCGCWAENTGAHNPYSTAVSTSGCGEHLVRTILARECSHALQAEDAHQALLETMQNKFISSPFLASEDGVLGGVIVLRSCRCSAEPDSSQNKQTLLVEFLWSHTTESMCVGYMSAQDGKAKTHISRLPPGAVAGQSVAIEGGVCRLESPVN
B3 was tested, and the “in vitro cleavage of 35S-methionine labeled p75 MLL substrate” value [2] was “but not the CS1/2 mt substrate”, the “in vitro cleavage of 35S-methionine labeled p75 MLL substrate” value [1] was “Recombinant Taspase1 (rTaspase1) cleaved the wt p75 MLL” and the “in vitro cleavage, enzyme titration and time course (appearance of p47 and p42 fragments)” value [1] was “The p47 fragment appears first, while higher enzyme concentration or more time is needed for the appearance of the p42 fragment”.

B4: 22 kDa beta subunit of recombinant Taspase1 (enzyme)
chain: B3 chain 2
notes: also called co-purified 22 kDa polypeptide; 22 kDa C-terminal beta subunit
B4: binds [3].

Source: US20060068482A1 (Dana-Farber, published 2006)
